Data on 2 proteins can be found in US20080045463.

The series deals with T1, biotinylated HIF-1α ODD peptide, Q16665.
T1 chain: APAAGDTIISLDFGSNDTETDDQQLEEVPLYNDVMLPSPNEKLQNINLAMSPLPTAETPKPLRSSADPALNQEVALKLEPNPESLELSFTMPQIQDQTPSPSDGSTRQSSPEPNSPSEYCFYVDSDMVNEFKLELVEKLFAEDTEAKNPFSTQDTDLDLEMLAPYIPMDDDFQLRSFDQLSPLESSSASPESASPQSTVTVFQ

B1: Human HPH-2 (protein)
chain: MANDSGGPGGPSPSERDRQYCELCGKMENLLRCSRCRSSFYCCKEHQRQDWKKHKLVCQGSEGALGHGVGPHQHSGPAPPAAVPPPRAGAREPRKAAARRDNASGDAAKGKVKAKPPADPAAAASPCRAAAGGQGSAVAAEAEPGKEEPPARSSLFQEKANLYPPSNTPGDALSPGGGLRPNGQTKPLPALKLALEYIVPCMNKHGICVVDDFLGKETGQQIGDEVRALHDTGKFTDGQLVSQKSDSSKDIRGDKITWIEGKEPGCETIGLLMSSMDDLIRHCNGKLGSYKINGRTKAMVACYPGNGTGYVRHVDNPNGDGRCVTCIYYLNKDWDAKVSGGILRIFPEGKAQFADIEPKFDRLLFFWSDRRNPHEVQPAYATRYAITVWYFDADERARAKVKYLTGEKGVRVELNKPSDSVGKDVF
On to B1, for which the “^35S-pVHL pulldown enzyme assay activity (Pro564 hydroxylation of the peptide)” value is “the ^35S-pVHL pulldown enzyme assay activity of each HPH homologue was dependent on 2-OG, Fe(II), and ascorbate”.

B2: Human HPH-1 (protein)
chain: MPLGHIMRLDLEKIALEYIVPCLHEVGFCYLDNFLGEVVGDCVLERVKQLHCTGALRDGQLAGPRAGVSKRHLRGDQITWIGGNEEGCEAISFLLSLIDRLVLYCGSRLGKYYVKERSKAMVACYPGNGTGYVRHVDNPNGDGRCITCIYYLNKNWDAKLHGGILRIFPEGKSFIADVEPIFDRLLFFWSDRRNPHEVQPSYATRYAMTVWYFDAEERAEAKKKFRNLTRKTESALTED
Turning to B2, the “^35S-pVHL pulldown enzyme assay activity (Pro564 hydroxylation of the peptide)” value was “As exemplified by HPH-1, the ^35S-pVHL pulldown enzyme assay activity of each HPH homologue was dependent on 2-OG, Fe(II), and ascorbate”.
